Reference: US20240190999A1

Molecular target: human 4-1BB on primary human CD8 T cells (human) (UniProt Q07011)
Assay: cell-based or functional assay

Sequence of human 4-1BB on primary human CD8 T cells (human) (Q07011 24-255 limits assumed): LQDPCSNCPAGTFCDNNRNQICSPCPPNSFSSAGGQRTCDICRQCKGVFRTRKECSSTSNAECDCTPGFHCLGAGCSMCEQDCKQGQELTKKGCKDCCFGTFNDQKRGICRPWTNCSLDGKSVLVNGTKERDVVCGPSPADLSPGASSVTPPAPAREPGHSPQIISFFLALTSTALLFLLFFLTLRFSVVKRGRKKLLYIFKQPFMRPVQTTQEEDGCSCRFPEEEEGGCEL

EC50, IFNγ production by primary human CD8 T cells, Fc-mediated cross-linking | EC50, IFNγ production by primary human CD8 T cells, antibody cross-linked via anti-Fc | EC50, IFNγ production by primary human CD8 T cells, antibody soluble | EC50, IFNγ production by primary human CD8 T cells, cross-linked via coated anti-Fc | EC50, IFNγ production by primary human CD8 T cells, without Fc-cross-linking | Substance
0.42 nM | 0.21 nM | – | – | – | Anti-4-1BB mAb MOR-7480 (antibody)
– | 0.02 nM | 0.93 nM | 0.04 nM | 0.97 nM | Anti-4-1BB mAb 20H4.9 (antibody)
